# Starred links: 1 amine or outer side, 2 acyl side, 3 side chain; linkers in the order of their positions; H or OH if unused. Non-standard residues stand in square brackets, D forms with d. No end group written: not given here. *: point of attachment. Tyr(Me) = O-methyl-L-tyrosine, COc1ccc(C[C@H](N[*:1])C(=O)[*:2])cc1; Phe(4-NO2) = N[C@@H](Cc1ccc([N+](=O)[O-])cc1)C(=O)O; 2,4,6‑trimethylbenzoyl = Cc1cc(C)c(C(=O)*)c(C)c1; Benzenesulfonyl(4-OMe) = COc1ccc(S(=O)(=O)*)cc1; Benzoyl(4-tBu) = CC(C)(C)c1ccc(C(=O)*)cc1; Phe(3-F) = N[C@@H](Cc1cccc(F)c1)C(=O)O; Phe(4-F) = N[C@@H](Cc1ccc(F)cc1)C(=O)O; 1Nal = N[C@@H](Cc1cccc2ccccc12)C(=O)O; Phe(2-F) = N[C@@H](Cc1ccccc1F)C(=O)O; Maleoyl = O=C(/C=C\C(=O)[*:2])[*:1]; Benzoyl(4-Br) = O=C(c1ccc(Br)cc1)*; 2Naphthoyl = O=C(c1ccc2ccccc2c1)*; Benzoyl(4-Me) = Cc1ccc(C(=O)*)cc1; pS = N[C@@H](COP(=O)(O)O)C(=O)O; Suc = O=C(CCC(=O)[*:2])[*:1]; Hexanoyl = CCCCCC(=O)*; Bz = O=C(c1ccccc1)*; Ahx = NCCCCCC(=O)O
# B1: DpSGIFE-NH2 (peptide)
# peptide: D[pS]GIFE-NH2
# modifications: N-terminus assumed
# SMILES: CC[C@H](C)[C@H](NC(=O)CNC(=O)[C@H](COP(=O)(O)O)NC(=O)[C@@H](N)CC(=O)O)C(=O)N[C@@H](Cc1ccccc1)C(=O)N[C@@H](CCC(=O)O)C(N)=O
# B2: Suc-EGY1NalE-NH2 (peptide)
# peptide: Suc-EGY[1Nal]E-NH2
# B3: Suc-EGYF(4NO2)E-NH2 (peptide)
# peptide: Suc-EGY[Phe(4-NO2)]E-NH2
# SMILES: NC(=O)[C@H](CCC(=O)O)NC(=O)[C@H](Cc1ccc([N+](=O)[O-])cc1)NC(=O)[C@H](Cc1ccc(O)cc1)NC(=O)CNC(=O)[C@H](CCC(=O)O)NC(=O)CCC(=O)O
# B4: Suc-QGF(3F)F(4NO2)E-NH2 (peptide)
# peptide: QGXXE
# modifications: N-terminal Suc (succinyl) cap; position 3 F(3F); position 4 F(4NO2); C-terminal amide
# B5: Mal-EGF(3F)F(4NO2)E-NH2 (peptide)
# peptide: Maleoyl-EG[Phe(3-F)][Phe(4-NO2)]E-NH2
# SMILES: NC(=O)[C@H](CCC(=O)O)NC(=O)[C@H](Cc1ccc([N+](=O)[O-])cc1)NC(=O)[C@H](Cc1cccc(F)c1)NC(=O)CNC(=O)[C@H](CCC(=O)O)NC(=O)/C=C\C(=O)O
# B6: Suc-EGF(2F)F(4NO2)E-NH2 (peptide)
# peptide: Suc-EG[Phe(2-F)][Phe(4-NO2)]E-NH2
# SMILES: NC(=O)[C@H](CCC(=O)O)NC(=O)[C@H](Cc1ccc([N+](=O)[O-])cc1)NC(=O)[C@H](Cc1ccccc1F)NC(=O)CNC(=O)[C@H](CCC(=O)O)NC(=O)CCC(=O)O
# B7: Suc-EGF(3F)1NalE-NH2 (peptide)
# peptide: Suc-EG[Phe(3-F)][1Nal]E-NH2
# B8: Suc-EGF(2F)Y(Me)E-NH2 (peptide)
# peptide: Suc-EG[Phe(2-F)][Tyr(Me)]E-NH2
# SMILES: COc1ccc(C[C@H](NC(=O)[C@H](Cc2ccccc2F)NC(=O)CNC(=O)[C@H](CCC(=O)O)NC(=O)CCC(=O)O)C(=O)N[C@@H](CCC(=O)O)C(N)=O)cc1
# B9: Suc-EGF(3F)F(4NO2)E-NH2 (peptide)
# peptide: Suc-EG[Phe(3-F)][Phe(4-NO2)]E-NH2
# SMILES: NC(=O)[C@H](CCC(=O)O)NC(=O)[C@H](Cc1ccc([N+](=O)[O-])cc1)NC(=O)[C@H](Cc1cccc(F)c1)NC(=O)CNC(=O)[C@H](CCC(=O)O)NC(=O)CCC(=O)O
# B10: Suc-EGF(4F)F(4NO2)E-NH2 (peptide)
# peptide: Suc-EG[Phe(4-F)][Phe(4-NO2)]E-NH2
# SMILES: NC(=O)[C@H](CCC(=O)O)NC(=O)[C@H](Cc1ccc([N+](=O)[O-])cc1)NC(=O)[C@H](Cc1ccc(F)cc1)NC(=O)CNC(=O)[C@H](CCC(=O)O)NC(=O)CCC(=O)O
# B11: Suc-EGF(4NO2)1NalE-NH2 (peptide)
# peptide: Suc-EG[Phe(4-NO2)][1Nal]E-NH2
# SMILES: NC(=O)[C@H](CCC(=O)O)NC(=O)[C@H](Cc1cccc2ccccc12)NC(=O)[C@H](Cc1ccc([N+](=O)[O-])cc1)NC(=O)CNC(=O)[C@H](CCC(=O)O)NC(=O)CCC(=O)O
# B12: 4-(MeO)PhSO2-dEGF(3F)WE-Ahx-K(NHSO2-(4-(Br)-Ph))-NH2 (peptide)
# peptide: {Benzenesulfonyl(4-OMe)}-[dD]EG[Phe(3-F)]WE[Ahx]K(4‑bromophenylsulfonyl)-NH2
# notes: also called UBP059
# B13: 4-(MeO)PhSO2-dEGF(3F)WE-Ahx-K(NHCO-2-Naph)-NH2 (peptide)
# peptide: {Benzenesulfonyl(4-OMe)}-[dD]EG[Phe(3-F)]WE[Ahx]K(2Naphthoyl)-NH2
# notes: also called UBP055
# B14: 4-(MeO)PhSO2-dEGF(3F)WE-Ahx-K(NHCO-(4-(OMe)-Ph))-NH2 (peptide)
# peptide: {Benzenesulfonyl(4-OMe)}-[dD]EG[Phe(3-F)]WE[Ahx]K(4‑methoxybenzoyl)-NH2
# notes: also called UBP066
# B15: 4-(MeO)PhSO2-dEGF(3F)WE-Ahx-K(NHCO-(4-(Cl)-Ph))-NH2 (peptide)
# peptide: {Benzenesulfonyl(4-OMe)}-[dD]EG[Phe(3-F)]WE[Ahx]K(4‑chlorobenzoyl)-NH2
# notes: also called UBP060
# B16: 4-(MeO)PhSO2-dEGF(3F)WE-Ahx-K(NHCO-(4-(ME)-Ph))-NH2 (peptide)
# peptide: {Benzenesulfonyl(4-OMe)}-[dD]EG[Phe(3-F)]WE[Ahx]K(Benzoyl(4-Me))-NH2
# notes: also called UBP057
# B17: 4-(MeO)PhSO2-dEGF(3F)WE-Ahx-K(NHCO-(4-(Br)-Ph))-NH2 (peptide)
# peptide: {Benzenesulfonyl(4-OMe)}-[dD]EG[Phe(3-F)]WE[Ahx]K(Benzoyl(4-Br))-NH2
# notes: also called UBP058
# B18: 4-(MeO)PhSO2-dEGF(3F)WE-NH2 (peptide)
# peptide: {Benzenesulfonyl(4-OMe)}-[dD]EG[Phe(3-F)]WE-NH2
# SMILES: COc1ccc(S(=O)(=O)N[C@H](CC(=O)O)C(=O)N[C@@H](CCC(=O)O)C(=O)NCC(=O)N[C@@H](Cc2cccc(F)c2)C(=O)N[C@@H](Cc2c[nH]c3ccccc23)C(=O)N[C@@H](CCC(=O)O)C(N)=O)cc1
# notes: also called UBP022
# B19: 4-(MeO)PhSO2-dEGF(3F)WE-Ahx-K(NHCO-(4-(CF3)-Ph))-NH2 (peptide)
# peptide: {Benzenesulfonyl(4-OMe)}-[dD]EG[Phe(3-F)]WE[Ahx]K(4‑(trifluoromethyl)benzoyl)-NH2
# notes: also called UBP064
# B20: 4-(MeO)PhSO2-dEGF(3F)WE-Ahx-K(NHOCO-1-Naph)-NH2 (peptide)
# peptide: {Benzenesulfonyl(4-OMe)}-[dD]EG[Phe(3-F)]WE[Ahx]K(1‑naphthyloxycarbonyl)-NH2
# notes: also called UBP069
# B21: 4-(MeO)PhSO2-dEGF(3F)WE-Ahx-K(NHSO2Ph)-NH2 (peptide)
# peptide: {Benzenesulfonyl(4-OMe)}-[dD]EG[Phe(3-F)]WE[Ahx]K(phenylsulfonyl)-NH2
# notes: also called UBP073
# B22: 4-(MeO)PhSO2-dEGF(3F)WE-Ahx-K(NHCO-(2,4,6-(Me)3-Ph))-NH2 (peptide)
# peptide: {Benzenesulfonyl(4-OMe)}-[dD]EG[Phe(3-F)]WE[Ahx]K(2,4,6‑trimethylbenzoyl)-NH2
# notes: also called UBP056
# B23: 4-(MeO)PhSO2-dEGF(3F)WE-Ahx-K(NHSO2-(4-(n-Pr)-Ph)-NH2 (peptide)
# peptide: {Benzenesulfonyl(4-OMe)}-[dD]EG[Phe(3-F)]WE[Ahx]K(4‑n‑propylphenylsulfonyl)-NH2
# notes: also called UBP074
# B24: 4-(MeO)PhSO2-dEGF(3F)WE-Ahx-K(NHCO-(4-(t-Bu-Ph))-NH2 (peptide)
# peptide: {Benzenesulfonyl(4-OMe)}-[dD]EG[Phe(3-F)]WE[Ahx]K(Benzoyl(4-tBu))-NH2
# notes: also called UBP054
# B25: 4-(MeO)PhSO2-dEGF(3F)WE-Ahx-K(NHCO-(3,5-(Cl)2-Ph))-NH2 (peptide)
# peptide: {Benzenesulfonyl(4-OMe)}-[dD]EG[Phe(3-F)]WE[Ahx]K(3,5‑dichlorobenzoyl)-NH2
# notes: also called UBP062
# B26: 4-(MeO)PhSO2-dEGF(3F)WE-Ahx-K(NHCO-Ph)-NH2 (peptide)
# peptide: {Benzenesulfonyl(4-OMe)}-[dD]EG[Phe(3-F)]WE[Ahx]K-NH2
# modifications: not fully specified (residue 8); printed as 4-(MeO)PhSO2-dEGF(3F)WE-Ahx-K(NHCO-Ph)-NH2
# notes: also called UBP065
# B27: 4-(MeO)PhSO2-dEGF(3F)WE-Ahx-K(NHCOPh)-NH2 (peptide)
# peptide: {Benzenesulfonyl(4-OMe)}-[dD]EG[Phe(3-F)]WE[Ahx]K(Bz)-NH2
# notes: also called UBP061
# B28: 4-(MeO)PhSO2-dEGF(3F)WE-Ahx-K(NHCO-(CH2)4CH3)-NH2 (peptide)
# peptide: {Benzenesulfonyl(4-OMe)}-[dD]EG[Phe(3-F)]WE[Ahx]K(Hexanoyl)-NH2
# notes: also called UBP063
# B29: 4-Pr-PhSO2-dEGF(3F)WE-NH2 (peptide)
# peptide: {4‑Pr‑PhSO2}-[dD]EG[Phe(3-F)]WE-NH2
# notes: also called UBP041
# B30: 4-(MeO)PhSO2-dEGF(3F)WE-Ahx-K(NHCONH-Ph)-NH2 (peptide)
# peptide: {Benzenesulfonyl(4-OMe)}-[dD]EG[Phe(3-F)]WE[Ahx]K(phenylcarbamoyl)-NH2
# B31: 4-(MeO)PhSO2 dEGF(3F)WE-Ahx-K(NHCO-(4-(Me2N)-Ph))-NH2 (peptide)
# peptide: {Benzenesulfonyl(4-OMe)}-[dD]EG[Phe(3-F)]WE[Ahx]K(4‑(dimethylamino)benzoyl)-NH2
# notes: also called UBP071
# B32: 4-(MeO)PhSO2-dEGF(3F)WE-Ahx-K(NHCO-CH2CH2Ch(CH3)2)-NH2 (peptide)
# peptide: {Benzenesulfonyl(4-OMe)}-[dD]EG[Phe(3-F)]WE[Ahx]K-NH2
# modifications: not fully specified (residue 8); printed as 4-(MeO)PhSO2-dEGF(3F)WE-Ahx-K(NHCO-CH2CH2Ch(CH3)2)-NH2
# notes: also called UBP068
# B33: 4-(MeO)PhSO2-dEGF(3F)WE-Ahx-K(NHSO2-(4-i-Pr)-Ph))-NH2 (peptide)
# peptide: {Benzenesulfonyl(4-OMe)}-[dD]EG[Phe(3-F)]WE[Ahx]K(4‑isopropylphenylsulfonyl)-NH2
# notes: also called UBP072
# B34: 4-i-Pr-PhSO2-dEGF(3F)WE-NH2 (peptide)
# peptide: {4‑i‑Pr‑PhSO2}-[dD]EG[Phe(3-F)]WE-NH2
# notes: also called UBP040
# Biological target: Skp2 (UniProt Q13309 1-424, limits assumed)
# Test: cell-based or functional assay
# Sequence of Skp2 (Q13309 whole entry): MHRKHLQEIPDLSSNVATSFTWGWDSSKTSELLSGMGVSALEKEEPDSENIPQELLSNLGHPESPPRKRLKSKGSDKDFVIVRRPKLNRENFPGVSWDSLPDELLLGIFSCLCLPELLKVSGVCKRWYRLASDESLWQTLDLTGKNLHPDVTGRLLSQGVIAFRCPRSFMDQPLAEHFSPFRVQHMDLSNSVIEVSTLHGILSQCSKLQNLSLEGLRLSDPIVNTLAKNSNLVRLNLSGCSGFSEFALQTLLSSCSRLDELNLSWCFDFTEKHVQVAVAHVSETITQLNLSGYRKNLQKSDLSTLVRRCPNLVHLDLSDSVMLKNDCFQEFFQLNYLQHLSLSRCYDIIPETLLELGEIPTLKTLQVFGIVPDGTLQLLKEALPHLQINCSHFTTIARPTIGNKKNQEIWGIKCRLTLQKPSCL
Binder,% Inhibition Skp2 @ 10 µM [%],% Inhibition Skp2 @ (100 µM) [%]
B1,8,13
B2,0,6
B3,11,31
B4,0,0
B5,0,14
B6,8,11
B7,0,12
B8,0,4
B9,0,3
B10,0,0
B11,12,6

# Biological target: Fbw7 (UniProt Q969H0 263-707, limits assumed)
# Test: cell-based or functional assay
# Sequence of Fbw7 (Q969H0 263-707 limits assumed): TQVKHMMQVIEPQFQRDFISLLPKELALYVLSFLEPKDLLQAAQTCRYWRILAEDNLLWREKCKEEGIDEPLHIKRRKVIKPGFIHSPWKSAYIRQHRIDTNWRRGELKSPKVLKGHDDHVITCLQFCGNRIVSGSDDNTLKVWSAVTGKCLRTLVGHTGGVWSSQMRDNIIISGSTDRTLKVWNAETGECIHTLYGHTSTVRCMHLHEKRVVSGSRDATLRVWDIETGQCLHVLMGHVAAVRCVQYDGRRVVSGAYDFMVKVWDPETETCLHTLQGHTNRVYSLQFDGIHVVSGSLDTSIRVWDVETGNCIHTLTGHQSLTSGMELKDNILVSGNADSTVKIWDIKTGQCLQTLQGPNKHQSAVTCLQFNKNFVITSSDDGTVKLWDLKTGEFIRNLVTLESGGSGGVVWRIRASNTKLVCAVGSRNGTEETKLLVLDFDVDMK
Binder,% Inhibition Fbw7 @ 10 µM [%],% Inhibition Fbw7 @ (100 µM) [%]
B1,0,0
B2,1,5
B3,0,0
B4,0,0
B5,0,18
B6,0,0
B7,3,0
B8,0,4
B9,0,2
B10,0,0
B11,14,28

# Biological target: T1, Beta Transducin repeat-containing protein (βTrCP), tag cleaved and complexed with Skp1 (UniProt Q9Y297 175-605; P63208 1-163)
# T1 construct: the FP protocol says that Ki is determined from FP dose-response curves; also called βTrCP/Skp1
# Test: FP competition dose-response, fluorescein-IkB peptide tracer on βTrCP/Skp1 (average Ki; assay not given)
# T1 sequence (Q9Y297 175-605, chain 1 of 2): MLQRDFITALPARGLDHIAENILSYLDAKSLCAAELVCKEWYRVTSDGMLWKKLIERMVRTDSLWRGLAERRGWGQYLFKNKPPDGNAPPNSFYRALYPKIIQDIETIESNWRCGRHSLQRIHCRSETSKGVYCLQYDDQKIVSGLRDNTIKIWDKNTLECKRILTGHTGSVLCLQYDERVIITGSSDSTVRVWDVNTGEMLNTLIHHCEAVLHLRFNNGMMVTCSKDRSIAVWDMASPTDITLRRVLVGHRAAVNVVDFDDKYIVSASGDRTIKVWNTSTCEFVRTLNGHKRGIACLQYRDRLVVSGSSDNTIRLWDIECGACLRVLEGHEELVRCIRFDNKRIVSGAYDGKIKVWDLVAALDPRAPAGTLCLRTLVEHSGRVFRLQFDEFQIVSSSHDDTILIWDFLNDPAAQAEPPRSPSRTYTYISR
# T1 sequence (P63208 whole entry, chain 2 of 2): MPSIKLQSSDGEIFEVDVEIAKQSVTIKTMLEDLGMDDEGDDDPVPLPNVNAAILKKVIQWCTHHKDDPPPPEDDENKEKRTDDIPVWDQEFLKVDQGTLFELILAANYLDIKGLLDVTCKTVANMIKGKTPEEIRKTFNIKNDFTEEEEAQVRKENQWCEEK
row,Binder,Ki [nM]
1,B12,2.96
2,B13,1.85
3,B14,5.17
4,B15,3.64
5,B16,2.88
6,B17,3.35
7,B18,5.78
8,B19,6.39
9,B20,11.6
10,B21,13
11,B22,3.39
12,B23,28.6
13,B24,1.94
14,B25,6.23
15,B26,5.94
16,B27,3.1
17,B28,5.37
18,B29,1.77
19,B30,5.61
20,B31,9.51
21,B32,5.38
22,B33,12.9
23,B34,1.6
